Source: patent US20200262894A1 (FRED HUTCHINSON CANCER RESEARCH CENTER, published 2020)
Non-standard residues stand in square brackets, D forms with d.

Assays:
Experiment in all cases: flow cytometry, cytometric bead array with BSA-coupled peptides
[1] = molecular target: T1, STII peptide Ac-C(dPEG4)NWSHPQFEK-amide, maleimide-coupled to BSA carrier protein (also: maleimide-coupled to BSA carrier protein)
T1 construct: on a cytometric bead array as BSA conjugate
T1 peptide: Ac-C[dPEG4]NWSHPQFEK-NH2

[2] = molecular target: T2, STII peptide H2N-CGNWSHPQFEKGC-OH, maleimide-coupled to BSA carrier protein (cysteine pairing not given here; also: maleimide-coupled to BSA carrier protein)
T2 construct: on a cytometric bead array as BSA conjugate
T2 peptide: H-CGNWSHPQFEKGC-OH

[3] = molecular target: T3, STII peptide H2N-CGNWSHPQFEK-amide, maleimide-coupled to BSA carrier protein (also: maleimide-coupled to BSA carrier protein)
T3 construct: on a cytometric bead array as BSA conjugate
T3 peptide: H-CGNWSHPQFEK-NH2

Measured: binding result

B1: anti-STII monoclonal antibody 4E2 (antibody, V domains shown)
VH: QVQLQQSGAELARPGASVKLSCTASGYTFTSYGITWVRQRTGQGLEWIGEIFPGSGDTSYGEKLKGQATLTTDKSSSTAYMQLSSLTSEDSAVYFCARRYRYIYHAMDYWGQGTSVTVSS
VL: DILMTQTPLSLPVSLGDQASISCRSSQSIVHSNGNTYLEWYLQKPGQSPKLLIYKVSNRFSGVPDRFSGSGSGTDFTLKISRVEAEDLGVYYCFQGSHVPLTFGAGTKLELK
notes: also called 4E2 mAb
binds: all assays above

B2: anti-STII monoclonal antibody 3E8 (antibody, V domains shown)
VH: EVQLVETGGGFVKPGGSLKLSCAASGFTFSSYGMSWVRQTPEKRLEWVAAITSDGGGTHYPDTVKGRFTISRDFAKNTLYLQMSSLRSEDTAWYFCARHEPRLIAWFAHWGQGTLVTVSA
VL: DVLMTQTPLSLPVSLGDQASISCRSSQSIVHSNGYTYLEWYLQKPGQSPKLLIYEVSNRFSGVPDRFSGSGSGTDFTLKIIRVEAEDLGVYYCFQGSHVPWTFGGGTKLEIK
notes: also called 3E8 mAb; STII-specific mAb 3E8
binds: all assays above

B3: anti-STII monoclonal antibody 5G2 (antibody, V domains shown)
VH: QVQLQQSGAELARPGASVKLSCTASGYTFTSYGITWVRQRTGQGLEWIGEIFPGSGDTSYGEKFKGQATLTTDKSSSTAYMQLSSLTSEDSAVYFCARRYRYIYHAMDYWGQGTSVTVSS
VL: DILMTQTPLSLPVSLGDQASISCRSSQSIVHSNGNTYLEWYLQKPGQSPKLLIYKVSNRFSGVPDRFSGSGSGTDFTLKIRRVEAEDLGVYYCFQGSHVPLTFGAGTKLELK
notes: also called 5G2 mAb; anti-STII 5G2 mAb
binds: all assays above
